In publication doi:10.1101/2023.11.28.569054 (bioRxiv, 2023):

B2: NCLN (natural protein)
chain: AHEFTVYRMQQYDLQGQPYGTRNAVLNTEARTMAAEVLSRRCVLMRLLDFSYEQYQKALRQSAGAVVIILPRAMAAVPQDVVRQFMEIEPEMLAMETAVPVYFAVEDEALLSIYKQTQAASASQGSASAAEVLLRTATANGFQMVTSGVQSKAVSDWLIASVEGRLTGLGGEDLPTIVIVAHYDAFGVAPWLSLGADSNGSGVSVLLELARLFSRLYTYKRTHAAYNLLFFASGGGKFNYQGTKRWLEDNLDHTDSSLLQDNVAFVLCLDTVGRGSSLHLHVSKPPREGTLQHAFLRELETVAAHQFPEVRFSMVHKRINLAEDVLAWEHERFAIRRLPAFTLSHLESHRDGQRSSIMDVRSRVDSKTLTRNTRIIAEALTRVIYNLTEKGTPPDMPVFTEQMQIQQEQLDSVMDWLTNQPRAAQLVDKDSTFLSTLEHHLSRYLKDVKQHHVKADKRDPEFVFYDQLKQVMNAYRVKPAVFDLLLAVGIAAYLGMAYVAVQHFSLLYKTVQRLLVKAKTQ

Key:
Assay in all cases: cryo-EM structure
[1] = target: T1, TMEM147 of TMEM147-5aa-TEV-GFP-40aa(ALFA)-EMC2 (human, UniProt Q9BVK8 1-224)
T1 sequence: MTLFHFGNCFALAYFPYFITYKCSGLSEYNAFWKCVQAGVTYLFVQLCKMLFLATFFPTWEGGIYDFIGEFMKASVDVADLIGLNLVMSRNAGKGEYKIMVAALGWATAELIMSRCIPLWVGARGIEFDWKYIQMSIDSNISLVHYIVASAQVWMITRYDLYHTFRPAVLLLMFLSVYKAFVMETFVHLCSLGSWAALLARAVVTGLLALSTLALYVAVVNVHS

EMC1 = target: T2, EMC1 (human (endogenous in Expi293), UniProt Q8N766 23-993)
T2 sequence: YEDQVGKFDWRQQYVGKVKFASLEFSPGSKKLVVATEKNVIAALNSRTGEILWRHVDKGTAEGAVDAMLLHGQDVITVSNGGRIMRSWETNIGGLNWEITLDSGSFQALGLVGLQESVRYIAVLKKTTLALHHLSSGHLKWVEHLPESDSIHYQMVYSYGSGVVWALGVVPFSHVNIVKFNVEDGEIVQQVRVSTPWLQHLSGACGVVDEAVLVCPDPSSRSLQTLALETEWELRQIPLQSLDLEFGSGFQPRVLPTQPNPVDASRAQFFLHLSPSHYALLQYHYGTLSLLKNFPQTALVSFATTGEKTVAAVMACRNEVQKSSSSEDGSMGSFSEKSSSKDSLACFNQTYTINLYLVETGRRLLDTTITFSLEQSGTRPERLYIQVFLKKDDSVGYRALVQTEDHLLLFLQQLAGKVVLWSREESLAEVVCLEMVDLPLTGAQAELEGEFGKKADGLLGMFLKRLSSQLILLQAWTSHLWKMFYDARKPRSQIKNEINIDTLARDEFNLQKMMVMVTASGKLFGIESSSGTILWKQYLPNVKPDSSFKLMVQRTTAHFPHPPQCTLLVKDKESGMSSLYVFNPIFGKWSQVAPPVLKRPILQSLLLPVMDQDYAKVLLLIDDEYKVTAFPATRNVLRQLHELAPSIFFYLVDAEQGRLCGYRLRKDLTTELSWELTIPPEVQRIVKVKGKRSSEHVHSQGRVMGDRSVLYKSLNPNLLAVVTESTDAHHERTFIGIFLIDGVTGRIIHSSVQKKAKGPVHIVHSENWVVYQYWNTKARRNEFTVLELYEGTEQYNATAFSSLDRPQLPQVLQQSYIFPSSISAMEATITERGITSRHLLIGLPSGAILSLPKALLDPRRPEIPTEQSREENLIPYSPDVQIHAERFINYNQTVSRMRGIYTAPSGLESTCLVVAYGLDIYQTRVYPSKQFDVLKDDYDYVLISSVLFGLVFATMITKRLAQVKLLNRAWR

NCLN = target: B2
NCLN of BOS (tNOMO) = target: T3, NCLN of BOS (tNOMO) (human, UniProt Q969V3 43-563)
T3 sequence: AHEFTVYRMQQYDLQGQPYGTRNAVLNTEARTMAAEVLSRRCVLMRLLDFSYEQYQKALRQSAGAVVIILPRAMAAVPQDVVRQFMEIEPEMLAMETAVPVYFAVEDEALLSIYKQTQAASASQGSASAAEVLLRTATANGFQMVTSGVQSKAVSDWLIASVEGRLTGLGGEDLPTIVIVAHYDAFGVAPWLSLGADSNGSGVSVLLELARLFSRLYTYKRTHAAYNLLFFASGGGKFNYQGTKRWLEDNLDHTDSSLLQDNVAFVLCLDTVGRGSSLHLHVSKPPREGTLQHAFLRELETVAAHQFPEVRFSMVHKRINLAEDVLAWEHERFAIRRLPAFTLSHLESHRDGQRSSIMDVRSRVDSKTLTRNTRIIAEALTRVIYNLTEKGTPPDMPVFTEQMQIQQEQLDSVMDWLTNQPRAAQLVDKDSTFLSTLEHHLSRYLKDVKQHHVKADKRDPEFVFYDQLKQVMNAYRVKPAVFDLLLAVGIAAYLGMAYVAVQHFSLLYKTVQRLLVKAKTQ

B1: EMC5 (natural protein)
chain: MAPSLWKGLVGIGLFALAHAAFSAAQHRSYMRLTEKEDESLPIDIVLQTLLAFAVTCYGIVHIAGEFKDMDATSELKNKTFDTLRNHPSFYVFNHRGRVLFRPSDTANSSNQDALSSNTSLKLRKLESLRR
B1: binds [1].

B2: binds (EMC1).

B3: TMEM147-GFP (natural protein)
chain: MTLFHFGNCFALAYFPYFITYKCSGLSEYNAFWKCVQAGVTYLFVQLCKMLFLATFFPTWEGGIYDFIGEFMKASVDVADLIGLNLVMSRNAGKGEYKIMVAALGWATAELIMSRCIPLWVGARGIEFDWKYIQMSIDSNISLVHYIVASAQVWMITRYDLYHTFRPAVLLLMFLSVYKAFVMETFVHLCSLGSWAALLARAVVTGLLALSTLALYVAVVNVHS
B3: binds (NCLN).

B4: TMEM147 (from TMEM147-TEV-GFP, tag removed) (natural protein)
chain: MTLFHFGNCFALAYFPYFITYKCSGLSEYNAFWKCVQAGVTYLFVQLCKMLFLATFFPTWEGGIYDFIGEFMKASVDVADLIGLNLVMSRNAGKGEYKIMVAALGWATAELIMSRCIPLWVGARGIEFDWKYIQMSIDSNISLVHYIVASAQVWMITRYDLYHTFRPAVLLLMFLSVYKAFVMETFVHLCSLGSWAALLARAVVTGLLALSTLALYVAVVNVHS
B4: binds (NCLN of BOS (tNOMO)).
